Reference: PMC1810427, “MLN51 Stimulates the RNA-Helicase Activity of eIF4AIII”

Experiments:
eIF4AIII;MLN51 SELOR = eIF4AIII;MLN51 SELOR (human;human?, UniProt P38919;O15234 1-411;137-283, |); assay: SPR; AMPPNP; 5 mM Mg2+; SPR (Biacore 2000): 40 mM Tris-HCl pH 7.8, 50 mM NaCl, 4 mM DTT, 5 mM MgCl2, 0.002% Tween 20, 30 ul/min, 10-160 nM protein; temperature not stated; conditions: protein: recombinant;recombinant; tags: N-terminal His6;GST cleaved off (PreScission); copies: 1;1; label: 5' biotin; single strand
Chain of eIF4AIII;MLN51 SELOR (P38919 whole entry, chain 1 of 2): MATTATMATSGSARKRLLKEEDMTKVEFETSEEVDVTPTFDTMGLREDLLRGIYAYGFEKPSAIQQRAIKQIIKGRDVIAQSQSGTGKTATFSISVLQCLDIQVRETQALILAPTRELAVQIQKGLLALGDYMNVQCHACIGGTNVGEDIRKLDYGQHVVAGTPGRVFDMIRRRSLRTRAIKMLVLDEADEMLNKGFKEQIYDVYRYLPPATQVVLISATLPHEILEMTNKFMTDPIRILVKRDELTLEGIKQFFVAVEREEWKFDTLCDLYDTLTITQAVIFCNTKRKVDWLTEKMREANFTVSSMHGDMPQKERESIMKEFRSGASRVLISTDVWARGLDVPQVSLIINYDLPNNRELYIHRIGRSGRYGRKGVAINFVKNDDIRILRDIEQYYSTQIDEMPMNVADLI
Chain of eIF4AIII;MLN51 SELOR (O15234 137-283, chain 2 of 2): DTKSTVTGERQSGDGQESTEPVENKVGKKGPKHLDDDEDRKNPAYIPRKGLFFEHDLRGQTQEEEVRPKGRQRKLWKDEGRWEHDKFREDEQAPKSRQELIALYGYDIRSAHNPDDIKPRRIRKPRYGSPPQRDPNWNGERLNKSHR

MLN51 SELOR = MLN51 SELOR (UniProt O15234 137-283); assay: SPR; no nucleotide; 5 mM Mg2+; SPR (Biacore 2000): 40 mM Tris-HCl pH 7.8, 50 mM NaCl, 4 mM DTT, 5 mM MgCl2, 0.002% Tween 20, 30 ul/min, 10-160 nM protein; temperature not stated; conditions: protein: recombinant; tags: GST cleaved off (PreScission); label: 5' biotin; single strand
Chain of MLN51 SELOR (O15234 137-283): as the sequence (O15234 137-283, chain 2 of 2) above

Y14;Magoh = Y14;Magoh (human;human, UniProt Q9Y5S9;P61326 50-174;1-146, |); assay: SPR; no nucleotide stated; 5 mM Mg2+; SPR (Biacore 2000): 40 mM Tris-HCl pH 7.8, 50 mM NaCl, 4 mM DTT, 5 mM MgCl2, 0.002% Tween 20, 30 ul/min, 10-160 nM protein; temperature not stated; conditions: protein: recombinant;recombinant; tags: none;N-terminal His6; copies: 1;1; label: 5' biotin; single strand
Chain of Y14;Magoh (P61326 whole entry, chain 2 of 2, other chains not shown): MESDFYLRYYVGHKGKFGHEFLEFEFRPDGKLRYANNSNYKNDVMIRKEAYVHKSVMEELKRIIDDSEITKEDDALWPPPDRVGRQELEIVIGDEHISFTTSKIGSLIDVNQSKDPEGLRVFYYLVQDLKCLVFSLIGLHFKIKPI

[1] = target: eIF4AIII;MLN51 SELOR;Y14;Magoh (human;human;human, UniProt P38919;O15234;Q9Y5S9;P61326 1-411;137-283;50-174;1-146, |||); assay: SPR; ATP; 5 mM Mg2+; SPR (Biacore 2000): 40 mM Tris-HCl pH 7.8, 50 mM NaCl, 4 mM DTT, 5 mM MgCl2, 0.002% Tween 20, 30 ul/min, 10-160 nM protein; temperature not stated; conditions: protein: recombinant;recombinant;recombinant;recombinant; tags: N-terminal His6;GST cleaved off (PreScission);none;N-terminal His6; copies: 1;1;1;1; label: 5' biotin; single strand
Chain of eIF4AIII;MLN51 SELOR;Y14;Magoh (P38919 whole entry, chain 1 of 4, other chains not shown): as the sequence (P38919 whole entry, chain 1 of 2) above
Chain of eIF4AIII;MLN51 SELOR;Y14;Magoh (O15234 137-283, chain 2 of 4, other chains not shown): as the sequence (O15234 137-283, chain 2 of 2) above
Chain of eIF4AIII;MLN51 SELOR;Y14;Magoh (P61326 whole entry, chain 4 of 4, other chains not shown): as the sequence (P61326 whole entry, chain 2 of 2, other chains not shown) above

AUGUCAUUCGAGUACAGUCUGUUCAGCUAGUCUCC (ssRNA) [35-mer ssRNA]
Kd (eIF4AIII;MLN51 SELOR): ~10 nM
Kd (MLN51 SELOR): ~1000 nM
Kd (Y14;Magoh): ~2000 nM
Kd [1]: ~10 nM
